Molecular target: PD-L1 on PD-L1 expressing cells (IFNg-stimulated THP-1 cells; MDA-MB-231 cells) (UniProt Q9NZQ7)
Assay: FACS, MDA-MB-231 cells, 1 µg/ml, other secondary antibody

Sequence of PD-L1 on PD-L1 expressing cells (IFNg-stimulated THP-1 cells; MDA-MB-231 cells) (Q9NZQ7 19-290 limits assumed): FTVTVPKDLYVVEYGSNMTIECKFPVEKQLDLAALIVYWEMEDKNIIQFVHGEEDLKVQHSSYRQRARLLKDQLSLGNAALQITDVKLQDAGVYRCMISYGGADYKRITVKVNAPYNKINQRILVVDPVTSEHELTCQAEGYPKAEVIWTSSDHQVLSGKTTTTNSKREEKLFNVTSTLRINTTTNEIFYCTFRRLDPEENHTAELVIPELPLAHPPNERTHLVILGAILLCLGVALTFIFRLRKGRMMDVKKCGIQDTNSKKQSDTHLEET

Substance: mouse anti-PD-L1 antibody (R&D Systems, cat. no. MAB1561)
- MFI: 610
